Experimental data published in patent US20180312587A1 (ADURO BIOTECH HOLDINGS EUROPE B V, published 2018).

How the values were obtained:
human SIRPγ = molecular target: T1, human SIRPγ (human, UniProt Q9P1W8 29-387); assay: flow cytometry, Jurkat E6.1 cells
T1 construct: on transfected CHO-K1 cells; also called hSIRPγ
Description: Binding to hSIRPγ was assessed by flow cytometry using the Jurkat E6.1 T cell leukemia cell line (ECACC 88042803). Jurkat cells were seeded in 96-well round bottomed tissue culture plates and incubated for 40 minutes with the anti-hSIRPα antibodies (20 μg/mL and dilutions thereof) in PBS/1% BSA at 4° C. […] After this labeling procedure, cells were washed two times, resuspended in PBS/1% BSA, containing 0.1 μg/mL DAPI (BioLegend), and analysed by flow cytometry on the FACSVerse (BD Biosciences). Data were processed and analysed with FlowJo V10 software (FlowJo, LLC).

human SIRPα variant 1 [1] = molecular target: T2, human SIRPα variant 1 (human, UniProt P78324 31-504); assay: CELISA, CHO-K1 transfectants, point mutant study
T2 construct: full length ORF on transfected CHO-K1 or HEK293 cells; entry includes the signal peptide; also called hSIRPαV1; SIRPαV1
Description: Amino acids in the hSIRPα IgV domain that are altered in hSIRPβ1 were mutated by using the QuikChange II Site-Directed Mutagenesis Kit (Stratagene) and the full length hSIRPαV1 sequence (SEQ ID NO: 33) as donor cDNA. Binding of hSIRPα.40A to hSIRPαV1 point mutants was tested using CELISA. To this end, CHO-K1 cells were transiently transfected, using Lipofectamine 2000, with cDNA encoding the full length open reading frame of hSIRPαV1 and mutants thereof, and hSIRPβ1 subcloned into the pCI-neo vector. Transfected cells were seeded in culture medium (DMEM-F12 (Gibco) supplemented with 5% New Born Calf Serum (BioWest) and Pen/Strep (Gibco)) in 96-well flat-bottom tissue culture plates and incubated at 37° C., 5% CO₂ and 95% humidity for 24 hours. Subsequently, culture medium was removed and cells were incubated for 1 hour at 37° C., 5% CO₂ and 95% humidity with purified hSIRPα antibodies (used at 10 μg/mL and dilutions thereof). Next, cells were washed with PBS-T and incubated for 1 hour at 37° C., 5% CO₂ and 95% humidity with goat-anti-mouse IgG-HRP (Southern Biotech). Subsequently, cells were washed three times with PBS-T and immunoreactivity against hSIRPαV1, hSIRPαV1 mutants, and hSIRPβ1 was visualized with TMB Stabilized Chromogen (Invitrogen). Reactions were stopped with 0.5 M H₂SO₄ and absorbances were read at 450 and 610 nm. […]
Target sequence in this assay (P78324 31-504 limits assumed, change not shown): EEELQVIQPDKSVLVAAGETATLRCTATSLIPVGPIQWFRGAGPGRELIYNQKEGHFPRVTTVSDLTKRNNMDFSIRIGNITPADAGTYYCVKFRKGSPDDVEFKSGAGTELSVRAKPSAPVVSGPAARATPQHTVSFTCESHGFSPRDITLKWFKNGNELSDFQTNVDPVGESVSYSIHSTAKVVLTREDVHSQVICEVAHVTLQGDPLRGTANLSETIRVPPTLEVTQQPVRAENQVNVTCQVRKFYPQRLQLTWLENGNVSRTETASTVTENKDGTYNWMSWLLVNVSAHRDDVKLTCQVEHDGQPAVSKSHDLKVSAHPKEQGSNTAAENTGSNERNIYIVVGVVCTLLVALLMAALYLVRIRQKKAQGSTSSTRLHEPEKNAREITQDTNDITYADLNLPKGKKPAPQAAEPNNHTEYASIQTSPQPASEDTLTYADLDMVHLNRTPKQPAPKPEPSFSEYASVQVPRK

[2] = molecular target: T3, hSIRPα expressed on primary human cells (human, UniProt P78324 31-504); assay: flow cytometry, primary human granulocytes, donor 1
T3 construct: whole, on cells; also called hSIRPα on primary human CD14+ monocytes; on primary human granulocytes
T3 sequence (P78324 31-504): as the sequence (P78324 31-504 limits assumed, change not shown) above
Description: Next, cells were centrifuged at 300 g for 7 minutes. Supernatants containing lysed RBCs were removed by aspiration, and the remaining blood cells were gently resuspended in RBC lysis buffer and kept on ice for 1 minute. RBC lysis was neutralized by adding assay medium (IMDM (Gibco) supplemented with 10% Fetal Bovine Serum (Gibco) and Pen/Strep (Gibco)). Blood cells were centrifuged at 300 g for 6 minutes and supernatants were removed by aspiration to remove remaining RBCs as much as possible. Subsequently, erythrocyte-lysed blood cells were resuspended in assay medium containing 10 ng/mL IFNγ and cells were incubated for 1 hour at 37° C., 5% CO₂ and 95% humidity. […] The percentage of granulocytes present in the cell suspension was determined by flow cytometry on the FACSCanto II (BD Biosciences) based on high forward scatter (FSC) and side scatter (SSC). Binding of hSIRPα.50A to human granulocytes was assessed by incubating the cells for 30 minutes at 4° C. with hSIRPα.50A antibody (25 μg/mL and dilutions thereof) in PBS/1% BSA containing 10% autologous serum (PBS/1% BSA/10% serum). […] After this labeling procedure, cells were washed two times, resuspended in PBS/1% BSA/10% serum and analysed by flow cytometry on the FACSCanto II (BD Biosciences). Data were processed and analysed with FlowJo V10 software (FlowJo, LLC). […]

human SIRPα variant 2 = molecular target: T4, human SIRPα variant 2 (human, UniProt P78324 31-504); assay: flow cytometry, blockade of DyLight488-hCD47/Fc binding to THP-1 cells
T4 construct: full length ORF on transfected CHO-K1 cells; also called hSIRPαV2; SIRPαV2
T4 sequence (P78324 other isoform, or with tags, fused parts or gaps mutant limits assumed): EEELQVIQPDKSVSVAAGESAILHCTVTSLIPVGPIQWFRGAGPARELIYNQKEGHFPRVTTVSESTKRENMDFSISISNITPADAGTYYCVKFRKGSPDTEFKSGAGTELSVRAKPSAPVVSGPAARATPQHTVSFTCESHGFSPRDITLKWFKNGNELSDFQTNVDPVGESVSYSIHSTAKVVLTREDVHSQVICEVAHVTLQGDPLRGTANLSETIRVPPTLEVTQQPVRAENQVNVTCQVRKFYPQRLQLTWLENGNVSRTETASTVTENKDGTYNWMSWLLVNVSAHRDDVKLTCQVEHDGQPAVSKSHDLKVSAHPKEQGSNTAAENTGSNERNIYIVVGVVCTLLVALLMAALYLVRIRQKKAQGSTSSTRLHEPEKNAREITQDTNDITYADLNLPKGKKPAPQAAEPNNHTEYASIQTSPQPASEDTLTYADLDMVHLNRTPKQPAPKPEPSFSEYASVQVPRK
Description: (§1) hCD47 blockade for the KWAR23, clone 18D5, and hSIRPα.40A antibodies was assessed by flow cytometry. For this purpose, THP-1 (ATCC TIB-202) and U-937 (ATCC CRL-1593.2) monocyte cell lines were used as the source of hSIRPα in the assay. THP-1 and U-937 cells were seeded in 96-well round bottomed tissue culture plates and incubated for 45 minutes with FcR Blocking Reagent (Miltenyi Biotec) and indicated anti-hSIRPα antibodies (20 μg/mL and dilutions thereof) in PBS/1% BSA at 4° C. […] After this labeling procedure, cells were washed two times, resuspended in PBS/1% BSA containing 0.1 μg/mL DAPI (BioLegend), and analysed by flow cytometry on the FACSVerse (BD Biosciences). Data were processed and analysed with FlowJo V10 software (FlowJo, LLC) and plotted using GraphPad Prism 6 (GraphPad Software, Inc.). Binding of recombinant hCD47 fused to an Fc domain of human IgG1 was monitored in the presence of increasing amounts of the anti-hSIRPα antibodies. […] IC50 values represent the concentration at which half of the inhibition is observed.

human SIRPα variant 1 [3] = molecular target: T2, human SIRPα variant 1; assay: flow cytometry, blockade of DyLight488-hCD47/Fc binding to U-937 cells
Description: as §1

T1 sequence (Q9P1W8 29-387 limits assumed): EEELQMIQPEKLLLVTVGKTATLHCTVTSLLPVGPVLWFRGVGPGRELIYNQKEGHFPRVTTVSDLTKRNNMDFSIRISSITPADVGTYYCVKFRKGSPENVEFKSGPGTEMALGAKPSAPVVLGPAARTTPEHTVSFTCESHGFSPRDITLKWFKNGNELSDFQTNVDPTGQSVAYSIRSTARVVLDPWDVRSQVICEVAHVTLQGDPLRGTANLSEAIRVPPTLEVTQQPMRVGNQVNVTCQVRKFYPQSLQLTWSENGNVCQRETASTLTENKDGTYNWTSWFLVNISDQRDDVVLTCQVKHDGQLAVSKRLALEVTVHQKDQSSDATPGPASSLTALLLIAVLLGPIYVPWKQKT

Row | Binder | EC50 (human SIRPγ) | EC50 (human SIRPα variant 1 [1]) | EC50 [2] | IC50 (human SIRPα variant 2) | IC50 (human SIRPα variant 1 [3])
1 | hSIRPα.40A (antibody, mouse IgG1, kappa, V domains shown, mouse antibody, full chains without signal peptide; also called mouse hSIRPα.40A) VH: EVQFQQSGTVLARPGTSVKMSCKASGSTFTSYWMHWVKQGPGQGLQWIGAIYPVNNDTTYNQKFKGKAELTVVTSTSTAYMEVSSLTNEDSAVYYCTRSFYYSLDAAWFVYWGQGTLVTVSA VL: DIQMTQSPSSLSASLGERVSLTCRASQDIGSRLNWLQQEPDGTIKRLIYATSSLDSGVPKRFSGSRSGSDYSLTISGLESEDFVDYYCLQYASSPFTFGGGTKLEINR | 0.369 nM | 0.065 nM | 1.23 nM | 0.548 nM | 1.42 nM
2 | hSIRPα.50A (antibody, V domains shown, light chain constant domain not tied; also called mouse hSIRPα.50A; hSIRPα.50A.mIgG1) VH: QVQLQQSGPELVKPGASVRISCKASGFTFTNYYIHWVKQRPGQGLEWIGWIYPGNVNTKYNEKFKAKATLTADKSSTTAYMQLSSLASEDSAVYFCARPTIIATDFDVWGAGTTVTVSS VL: DIVMTQSHKFMSTSVGDRVNITCKASQGVGTAVGWYQQKPGQSPRLLIYWASTRHTGVPDRFTGSGSGTDFSLAISNVQSEDLADYFCQQYSTYPFTFGGGTNLEIK |  | 0.534 nM | 4.3 nM |  | 
3 | KWAR23 (antibody, V domains shown) VH: EVQLQQSGAELVKPGASVKLSCTASGFNIKDYYIHWVQQRTEQGLEWIGRIDPEDGETKYAPKFQDKATITADTSSNTAYLHLSSLTSEDTAVYYCARWGAYWGQGTLVTVSS VL: QIVLTQSPAIMSASPGEKVTLTCSASSSVSSSYLYWYQQKPGSSPKLWIYSTSNLASGVPARFSGSGSGTSYSLTISSMEAEDAASYFCHQWSSYPRTFGAGTKLELK | 0.003 nM |  |  | 0.132 nM | 0.284 nM
